This is an account of results in article PMC10693965.

Substrate in this data set: C[N+](C)(C)CCO
The experiment in a line: cells, lysate or membranes. The class given is cell-based, Clonorchis sinensis. The following applies: ND96 (96 mM Na+), pH 7.4, 22–25°C, sodium-dependent, labelled compound.

B1: CsChT (Clonorchis sinensis) (protein)
chain: MLYIPGLIAIIIFYLLILLVGFWAARKSRSNPAGTTETEDVMLAGRNIGLIVGIFTMTATWVGGGYINGTAENTFRPGQGLVWCQAPIGYAASLVLGGFFFAKRMRSLAFVTMLDPFQNKYGERMCGLLFIPALLGETFWSAAILSALGATLGVIVELDHTTSVIISACIALLYTLFGGLYSVAYTDVVQLFCIFVGLWISLPFALLNKATVPISQTWDRWKGSVEAVDAGIYVDNLLMLTFGGIPWQVYFQRVLSCRTAKQAQILSFVAAIGCLIMALPSVLIGAVGASTDWNMTGYGRAENFTIPDGEAKLVLPLVLRYLCPVWVSFVGLGAVSAAVMSSSDSSVLSAASMFARNVVKPVFWQSATERQIIWVMRASIFGVGALSCLLAICIQSIYGLWYLCSDLIYVILFPQLICVLYVRFSNTYGSLIGYILGLFVRLTSGEALLGLPALFKYPYFYDDPQDFYQRFPCKTFAMLCTLVVTIVVSYFTDLYFRKDSKRLKYDFFHCYKQRASASGSIHIGNRFNRPSIRTAKLPIQVPEVDSENADVDENSNKNSNTLDNNKPLA
B1: the Michaelis constant (Km) (in general, the substrate concentration at which the rate is half of its maximum) is 8.3 µM.
